According to patent US20090048158A1, “Insulin-Like Growth Factor Binding Protein-4 Compounds and Methods for Inhibiting Angiogenesis and Tumor Growth in Mammalian Cells” (priority 2005, published 2009):

Assays:
[1] = system: PAI-1 in U87MG cells; assay: Western blot of PAI-1; assay type: cell-based, human; settings: 500 μM dB-cAMP, 6 days
Protocol: Cellular proteins were extracted using CHAPS buffer. Proteins were separated on a 10% SDS-PAGE gel and transferred onto nitrocellulose membranes. Membranes were blocked with 5% instant skim dry milk in PBST for 1 hour, then washed twice for 5 min with PBST. Blots were probed with 1:500 dilution of the PAI-1 primary antibody (Biogenesis Ltd, England, UK) in 2% skim milk in PBST supplemented with 10 mM sodium azide overnight at 4° C. After washing in PBST, membranes were incubated with HRP-labeled anti-mouse IgG secondary antibody (NEN Life Science Products, USA; 1:5000) for 1 h at room temperature. Bands were visualized using Western Blot Chemiluminescence Reagent Plus kit (NEN™ Life Science Products) and the Fluor-S™ multiImager (BioRad Lab., Hercules, Calif., USA).

[2] = system: U87MG cells; assay: Real-time PCR (Q-PCR) gene expression; assay type: cell-based, human; settings: 500 μM dB-cAMP
Protocol: Total RNA was isolated from cells with TRIzol Reagent (Gibco BRL). The RNA (1 μg) was primed with oligo (dT)12-18 primers (0.5 μg/μg RNA, Gibco BRL) and reverse transcribed with 1-3 U of avian myeloblastosis virus reverse transcriptase (AMV RT, Promega) in a final volume of 20 μl. Completed RT reactions were diluted to 40 μl with water. Control reactions without the enzyme were run in parallel to monitor for potential genomic contamination. Primers were designed (Primer Express Software v2.0) for genes of interest (Table III) using Primer Express 2.0 program. Real-Time PCR was carried out with SYBR Green PCR Core Reagents Kit (Applied Biosystems, CA, USA) using the GeneAmp® 5700 Sequence Detection System (Perkin Elmer Applied Biosystems). A cDNA pool serially diluted from 1:10 to 1:1000 was used to generate standard curves. Reactions were performed in 20 μl reaction mixture containing 1×SYBR PCR buffer (Perkin-Elmer), 200 μM of each dATP, dCTP, dGTP and 400 μM dUTP, 0.025 U/μl AmpliTaq Gold, 0.01 U/μl AmpEraseUNG (uracil-N-glycosylase), 3 mM MgCl2, 120 nM of each primer and 2 μl of cDNA. […] Fluorescence was detected at the end of every 60° C. phase. […]
The PCR cycle number at which fluorescence reaches a threshold value of 10 times the standard deviation of baseline emission was used for quantitative measurements. […]

[3] = system: U87MG cells; assay: U87MG proliferation, CyQUANT Cell Proliferation Assay; assay type: cell-based, human; settings: for decrease in proliferation: 500 μM dB-cAMP
Protocol: Proliferation rates of U87MG cells were determined using CyQUANT® Cell Proliferation Assay Kit (Molecular Probes, Inc., Eugene, Oreg.). […] Cells were fed every two days and harvested at days 2, 3, 5 and 6 by washing with HBSS, blotting microplates dry and storing at −80° C. until analysis. For cell density determination, plates were thawed at room temperature, 200 μl of CyQUANT GR dye/lysis buffer was added to each well and plates were incubated in the dark for 5 min. Sample fluorescence was measured (485 nm ex/530 nm em) in a cytofluorimeter plate reader (Bio-Tek FL600) and fluorescence values converted into cell numbers from cell reference standard curves.

[4] = system: U87MG cells; assay: Anchorage-independent growth in semi-solid agar (U87MG); assay type: cell-based, human; settings: for reduction of U87MG colony formation / tumor growth in soft agar: 500 ng/ml protein
Protocol: D-MEM containing 10% FBS was warmed to 48° C. and diluted with Bacto-Agar to make a 0.6% (w/v) agar solution; 3 ml of agar solution was poured into 60 mm plates. […] Number and size of colonies formed were analyzed under the microscope (Olympus 1×50). Phase contrast images (6 fields/dish) were captured using a digital video camera (Olympus U-CMT) and analyzed with Northern Eclipse v.5.0 software. Each experiment was done in triplicate. Capillary-like tube (CLT) formation

[5] = system: U87MG cells; assay: ELISA of secreted proteins in U87MG conditioned media; assay type: cell-based, human; settings: 500 μM dB-cAMP, 6 days
[6] = system: human brain endothelial cells (HBEC); assay: Capillary-like tube (CLT) formation in Matrigel; assay type: cell-based; settings: for effect on IGF-1-induced CLT formation: IGF-1 150 ng/ml; for effect on IGF-1-induced CLT formation / effect on VEGF165-induced CLT formation / effect on P1GF-induced CLT formation / effect on bFGF-induced CLT formation: protein 500 ng/ml; for effect on VEGF165-induced CLT formation: VEGF165 20 ng/ml; for effect on P1GF-induced CLT formation: P1GF 100 ng/ml; for effect on bFGF-induced CLT formation: bFGF 20 ng/ml
Source text: Angiogenesis is the formation of new blood vessels from pre-existing capillaries. There are different methods to evaluate angiogenesis in vitro and in vivo. The method used in our studies consists in seeding human brain microvascular endothelial cells on Matrigel, which is an active matrix material resembling the mammalian cellular basement membrane. Endothelial cells seeded on Matrigel behave as they do in vivo and when submitted to an angiogenic stimuli reorganize forming a complex network of capillary-like tubes. The total length of the capillary-like tube network as well as the number of branching point (nodes) formed by the endothelial cells directly correlate with the potency of the angiogenic stimuli.
In vitro angiogenesis was assessed by endothelial tube formation in growth factor reduced Matrigel™ (BD Bioscience, Bedford, Mass.). 24-well plates were coated with 300 μl of unpolymerized Matrigel™ (5-7 mg prot/ml) and allowed to polymerize for 90 min at 37° C. […] In a set of experiments, 500 ng/ml of either full length recombinant IGFBP-4, NBP-4 or CBP-4 were co-applied with growth factors (IGF-I, VEGF165, P1GF, or bFGF) or U87MG CM. […] CLT formation was analyzed after 24 h using an Olympus 1×50 microscope. Phase contrast images were captured with a digital video camera (Olympus U-CMT) and analyzed using Northern Eclipse v.5.0 software. Microphotographs were thresholded, converted to binary images and skeletonized. The total length of the CLT networks and the number of nodes (branching points) formed by HBEC in the center of the well (˜80% of the total surface) were quantified. […]

[7] = system: plasminogen activator activity in U87MG cells; assay: Plasminogen activator activity assay (S-2251); assay type: cell-based, human; settings: 500 μM dB-cAMP, 3-day treatment
Protocol: Plasminogen activator activity (PAA) was determined by a spectrophotometric method using the chromogenic substrate S-2251 (D-Val-Leu-Lys p-nitroanilide dihydrochloride). […] Cells were washed 3 times and incubated for 2 h at 37° C. in phenol red-free D-MEM containing 2 c.u./ml plasminogen (DiaPharma Group, Ohio, USA) and 2 mM chromogenic substrate S-2251 (DiaPharma Group, Ohio, USA). The cleavage of 4-nitroaniline from the substrate by plasminogen activator was measured photometrically at 405 nm. Protein levels were measured with BioRad protein assay and PPA was expressed as a function of protein content in cell extracts.

[8] = system: Hela cells; assay: Anchorage-independent growth in semi-solid agar (Hela); assay type: cell-based, human; settings: 500 ng/ml IGFBP-4, 4 weeks
Protocol: D-MEM containing 10% FBS was warmed to 48° C. and diluted with Bacto-Agar to make a 0.6% (w/v) agar solution; 3 ml of agar solution was poured into 60 mm plates. […] The solidified cell layer was covered with 500 μl D-MEM±treatment which was replaced every three days over a 20-25 day period. Number and size of colonies formed were analyzed under the microscope (Olympus 1×50). Phase contrast images (6 fields/dish) were captured using a digital video camera (Olympus U-CMT) and analyzed with Northern Eclipse v.5.0 software. Each experiment was done in triplicate. Capillary-like tube (CLT) formation

[9] = 500 ng/ml protein co-applied with U87MG CM

**Q.** How did the PAI-1 protein expression [1] turn out when `CCCC(=O)Nc1ncnc2c1ncn2[C@@H]1O[C@@H]2COP(=O)(O)O[C@H]2[C@H]1OC(=O)CCC` [dB-cAMP, dibutyryl cyclic AMP] was run?
**A.** up-regulation

**Q.** And the “IGF-I and IGF-II mRNA change, Q-PCR” value [2]?
**A.** no changes were detected

**Q.** What about the “IGFBP-3 mRNA levels treated vs untreated, Q-PCR” value ([2]; day 6) of the same molecule?
**A.** not significantly different

**Q.** What about the decrease in proliferation ([3]; day 3) of the same molecule?
**A.** ~30%

**Q.** And the decrease in proliferation ([3]; day 5)?
**A.** ~45%

**Q.** What about the decrease in proliferation ([3]; day 6) of the same molecule?
**A.** ~50%

**Q.** What about the “total number of colonies vs untreated” value ([4]; 500 μM dB-cAMP or 500 ng/ml IGFBP-4) of the same molecule?
**A.** not significantly (p<0.05) different

**Q.** And the “reduction of size of colonies (total covered area per field)” value ([4]; 500 μM dB-cAMP, 4 weeks)?
**A.** ~75%

**Q.** What about the “size of colonies (total covered area per field)” value ([4]; 500 μM dB-cAMP, 4 weeks, untreated 1.1±0.3) of the same molecule?
**A.** 0.3±0.1 mm^2

**Q.** And the “VEGF-A levels in CM, increase vs untreated” value [5]?
**A.** 20%

**Q.** And the “levels of P1GF, IGF-1 and bFGF in CM” value [5]?
**A.** below the detection limit

**Q.** And the “VEGF-A level in CM of treated cells” value ([5]; untreated ~60)?
**A.** ~80 ng/mL

**Q.** And the “effect on U87MG CM-induced CLT formation” value ([6]; 500 μM dB-cAMP added directly to U87MG CM)?
**A.** did not inhibit CLT formation

**Q.** What about the “CLT formation by HBEC exposed to CM of dB-cAMP-treated U87MG” value ([6]; U87MG treated with 500 μM dB-cAMP, 6 days) of the same molecule?
**A.** blocks the angiogenic response

**Q.** And the “reduction in plasminogen activator activity (PAA)” value [7]?
**A.** 30%

**Q.** How did the “HBEC preparations in which CLT formation was induced” value ([6]; 7 HBEC isolations, VEGF 20 ng/ml alone or U87MG CM) turn out when “vascular endothelial growth factor-165 [VEGF]” was run?
**A.** 3 out of 7

B1: NBP-4: recombinant N-terminal IGFBP-4 protein fragment, aa 1 to 156 of the precursor, tagged (protein)
chain: MLPLCLVAALLLAAGPGPSLGDEAIHCPPCSEEKLARCRPPVGCEELVREPGCGCCATCALGLGMPCGVYTPRCGSGLRCYPPRGVEKPLHTLMHGQGVCMELAEIEAIQESLQPSDKDEGDHPNNSFSPCSAHDRRCLQKHFAKIRDRSTSGGKMDPWSHPQFEKTGHHHHHHHHGGQ
modifications: tagged; IGFBP4 N-terminal fragment construct
notes: recombinant N-terminal IGFBP-4 protein fragment, aa 1 to 156 of the precursor, tagged
**Q.** With B1 as the molecule, how does the “reduction of U87MG colony formation / tumor growth in soft agar” value ([4]; 4 weeks) read?
**A.** ~50%

**Q.** What about the “effect on IGF-1-induced CLT formation” value [6] of the same molecule?
**A.** abolish the angiogenic response

**Q.** What about the “effect on VEGF165-induced CLT formation” value [6] of the same molecule?
**A.** abolish the angiogenic response

B2: CBP-4: recombinant C-terminal IGFBP-4 protein fragment, aa 155 to 258 of the precursor, tagged (protein)
chain: MLLLLLLLGLRLQLSLGIASKVNGAPREDARPVPQGSCQSELHRALERLAASQSRTHEDLYIIPIPNCDRNGNFHPKQCHPALDGQRGKCWCVDRKTGVKLPGGLEPKGELDCHQLADSFREVDPWSHPQFEKTGHHHHHHHHGGQ
modifications: tagged; IGFBP4 C-terminal construct
notes: recombinant C-terminal IGFBP-4 protein fragment, aa 155 to 258 of the precursor, tagged
**Q.** B2 was tested. Which “reduction of U87MG colony formation / tumor growth in soft agar” value ([4]; 4 weeks) did it give?
**A.** ~55%

**Q.** And the “effect on U87MG CM-induced CLT formation” value [6, 9]?
**A.** completely blocking

**Q.** What about the “effect on IGF-1-induced CLT formation” value [6] of the same molecule?
**A.** completely blocking

**Q.** What about the “effect on P1GF-induced CLT formation” value [6] of the same molecule?
**A.** completely blocking

**Q.** What about the “effect on VEGF165-induced CLT formation” value [6] of the same molecule?
**A.** completely blocking

**Q.** And the “effect on bFGF-induced CLT formation” value [6]?
**A.** completely blocking

B3: insulin-like growth factor binding protein (IGFBP)-4 (protein)
chain: MLPLCLVAALLLAAGPGPSLGDEAIHCPPCSEEKLARCRPPVGCEELVREPGCGCCATCALGLGMPCGVYTPRCGSGLRCYPPRGVEKPLHTLMHGQGVCMELAEIEAIQESLQPSDKDEGDHPNNSFSPCSAHDRRCLQKHFAKIRDRSTSGGKMKVNGAPREDARPVPQGSCQSELHRALERLAASQSRTHEDLYIIPIPNCDRNGNFHPKQCHPALDGQRGKCWCVDRKTGVKLPGGLEPKGELDCHQLADSFREVDPWSHPQFEKTGHHHHHHHHGGQ
modifications: Streptag-II/His8 tag; IGFBP-4 construct
notes: full length recombinant IGFBP-4 with Streptag-II/(His)8 tag, aa 1 to 258
**Q.** How did the “effect on U87MG proliferation rates” value ([3]; 500 ng/ml) turn out when B3 was run?
**A.** did not affect U87MG proliferation rates

**Q.** And the “size of colonies (total area per field)” value ([4]; 500 ng/ml IGFBP-4, 4 weeks, untreated 1.5±0.6)?
**A.** 0.4±0.3 mm^2

**Q.** What about the “reduction of U87MG colony formation / tumor growth in soft agar” value ([4]; 4 weeks) of the same molecule?
**A.** ~80%

**Q.** What about the “reduction of Hela colony formation / colony size” value [8] of the same molecule?
**A.** ~45%

**Q.** And the “reduction of Hela colony formation / colony size” value ([8]; listed as IGFBP4)?
**A.** ~50%

**Q.** And the “effect on U87MG CM-induced CLT formation” value [6, 9]?
**A.** reversed U87MG CM-stimulated CLT (FIG. 4A-C) to control levels

**Q.** What about the “effect on IGF-1-induced CLT formation” value [6] of the same molecule?
**A.** potently inhibited

**Q.** And the “effect on P1GF-induced CLT formation” value [6]?
**A.** antagonized

**Q.** What about the “effect on VEGF165-induced CLT formation” value [6] of the same molecule?
**A.** antagonized

**Q.** And the “effect on bFGF-induced CLT formation” value [6]?
**A.** antagonized
